Source: patent publication US12723100

Key:
[1] = biological target: full-length human Nectin-4 on cells (human) (UniProt Q96NY8); assay: flow cytometry, SKBR3 cells (endogenous Nectin-4)
[2] = biological target: full-length human Nectin-4 on cells (human) (UniProt Q96NY8); assay: cell-based or functional assay
[3] = biological target: full-length human Nectin-4 on cells (human) (UniProt Q96NY8); assay: flow cytometry, CHO-Nectin-4 cells
[4] = biological target: human recombinant Nectin-4 protein (extracellular domain) (human) (UniProt Q96NY8); assay: ELISA, recombinant human Nectin-4 coated on plate
[5] = biological target: full-length human Nectin-4 on cells (human) (UniProt Q96NY8); assay: flow cytometry competition on CHO-Nectin-4 cells; competitor biotinylated human Nectin-1-His

- EC50 [1]: 0.07 nM
- EC50 [3]: 0.04 nM
- EC50 [4]: 0.34 nM
- EC50 [5]: 0.16 nM
B1: Positive Control 1 (PC1), in-house Nectin-4-specific antibody based on Enfortumab (AGS-22 M6) (antibody, INN chains, looked up, V domains shown)
VH: EVQLVESGGGLVQPGGSLRLSCAASGFTFSSYNMNWVRQAPGKGLEWVSYISSSSSTIYYADSVKGRFTISRDNAKNSLSLQMNSLRDEDTAVYYCARAYYYGMDVWGQGTTVTVSS
VL: DIQMTQSPSSVSASVGDRVTITCRASQGISGWLAWYQQKPGKAPKFLIYAASTLQSGVPSRFSGSGSGTDFTLTISSLQPEDFATYYCQQANSFPPTFGGGTKVEIKR
- Endocytosis EC50 (cell killing with MMAF-conjugated Fab anti-hFc), Nectin-4-CHO cells [2]: 0.33 nM
- Endocytosis EC50 (cell killing with MMAF-conjugated Fab anti-hFc), SKBR3 cells [2]: 0.39 nM
